The values that follow come from patent publication US20260224711A1, “ENHANCING BRAIN PERMEABILITY AND ACTIVITY OF GLUCOSYLCERAMIDASE (GCase) PROSNA FOR NEURODEGENERATIVE DISEASES” (NORTHWESTERN UNIVERSITY, priority 2023, published 2026).

Entries after “also recorded” stand apart in the source; their conditions may differ. Like-named read-outs stand apart in the source and are kept apart here.

The target of data set [1] is T1, GCase ProSNA constructs (Homo sapiens, UniProt P04062).
T1 sequence (P04062 40-536): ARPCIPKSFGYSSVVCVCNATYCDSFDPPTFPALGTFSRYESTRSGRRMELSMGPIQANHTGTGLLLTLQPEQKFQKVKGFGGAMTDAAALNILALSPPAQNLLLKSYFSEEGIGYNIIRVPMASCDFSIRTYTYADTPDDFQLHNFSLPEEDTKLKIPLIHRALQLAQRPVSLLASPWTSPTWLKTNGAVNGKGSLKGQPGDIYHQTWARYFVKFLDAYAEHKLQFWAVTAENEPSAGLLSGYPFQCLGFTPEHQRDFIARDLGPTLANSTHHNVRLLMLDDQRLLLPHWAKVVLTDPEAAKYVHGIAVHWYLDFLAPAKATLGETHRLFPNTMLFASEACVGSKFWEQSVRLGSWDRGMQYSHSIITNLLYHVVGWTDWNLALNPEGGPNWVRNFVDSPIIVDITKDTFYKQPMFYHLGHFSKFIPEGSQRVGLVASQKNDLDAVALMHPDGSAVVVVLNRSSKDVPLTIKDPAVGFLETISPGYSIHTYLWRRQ
The settings on record: co-incubation / co-assembly of activator with GCase ProSNA construct.
Excerpt: Next, the assay is repeated with generated GCase ProSNA constructs to investigate whether some of the activity lost during activation can be recovered.

In data set [2] the target is native GCase protein (Homo sapiens, UniProt P04062). To be noted: GCase 1.9 mg/mL, quetiapine introduced 30 minutes prior to substrate, FIG. 10. The procedure:
The purpose behind enzyme replacement therapy (ERT) is to replace protein that is either absent or dysregulated. […] This assay was completed using the same fluorometric kit described above, with quetiapine being introduced 30 minutes prior to the GCase substrate.

The test system of data set [3] is α-synuclein protein aggregates. The settings on record: cited from earlier work.
Data set [4] has as its target T2, GCase (Homo sapiens, UniProt P04062).
T2 construct: purchased GenScript; host or cells: CHO expression system
T2 sequence (P04062 40-536): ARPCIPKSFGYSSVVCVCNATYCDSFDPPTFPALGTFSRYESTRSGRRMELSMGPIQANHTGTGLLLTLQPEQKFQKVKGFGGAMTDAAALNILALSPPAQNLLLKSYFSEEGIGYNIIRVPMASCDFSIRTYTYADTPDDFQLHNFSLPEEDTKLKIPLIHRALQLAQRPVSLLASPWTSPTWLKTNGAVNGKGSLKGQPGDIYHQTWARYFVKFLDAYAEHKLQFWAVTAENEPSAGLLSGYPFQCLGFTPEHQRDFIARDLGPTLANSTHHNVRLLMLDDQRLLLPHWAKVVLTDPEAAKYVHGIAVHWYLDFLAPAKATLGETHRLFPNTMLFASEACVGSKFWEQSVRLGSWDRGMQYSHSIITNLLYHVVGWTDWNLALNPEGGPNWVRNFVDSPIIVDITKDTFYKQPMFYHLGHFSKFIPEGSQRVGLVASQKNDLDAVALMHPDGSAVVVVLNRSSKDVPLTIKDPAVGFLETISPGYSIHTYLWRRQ
The data set is described as follows: fluorometric GCase activity assay kit (Abcam) on GCase constructs. It is filed as biochemical. The settings on record: constructs at 0.24 mg/mL, GCase substrate 30 minutes at 37° C., FIG. 9; for protein activity after functionalization, compared with unmodified GCase: fluorescence Ex/Em=360/445. The procedure:
Upon interaction with active GCase, this substrate releases a fluorophore detectable using a plate reader at Ex/Em=360/445 nm.
Following the synthesis process, a comprehensive investigation into the impact of synthesis on protein activity was conducted. To assess this, we employed a fluorometric GCase activity assay kit (Abcam), using a synthetic substrate-4-Methylumbelliferyl β-D-glucopyranoside. Upon interaction with active GCase, this substrate releases a fluorophore detectable using a plate reader at Ex/Em=360/445 nm. The focus extended to evaluating the effects of PEGylation on GCase, along with modifications involving univalent (sole presence of the transferrin aptamer) or bivalent (co-presence of both transferrin and folate) DNA ligands. By using the protocol outlined in this assay, the aim was to understand and analyze the variations in protein activity resulting from these modifications. Briefly, GCase constructs (all at 0.24 mg/mL) were reacted with GCase substrate for 30 minutes at 37° C. They were then measured for fluorescence intensity at Ex/Em=360/445. […] This was a key finding as PEGylation is currently one of the most used methods to improve protein delivery.

Data set [5] concerns neurons (dopaminergic), astrocytes, and microglia. The data set is described as follows: flow cytometry uptake into neuronal cell types. It is filed as cell-based. An excerpt:
The ability of the GCase ProSNA constructs to be taken up into cells will be assessed. To investigate their uptake potential, flow cytometry is used as a method for determining the percent uptake of the constructs compared to control groups (unmodified GCase protein, linear bivalent DNA ligand, GCase-Transferrin aptamer, and GCase-Folic Acid). Constructs are synthesized as described previously, including the fluorescent tagging the GCase protein core as well as including a Cyanine3 dye into the aptamer sequence (Folate-SEQ ID NO: 1-Cy3-DBCO dT). Once prepared, the constructs are used to treat different mono-populations of different neuronal cell types, including neurons (dopaminergic), astrocytes, and microglia, to evaluate their uptake ability. In all cases, a live dead stain is used to determine percent uptake in viable populations. Furthermore, uptake across different time points is assessed to determine the rates at which the constructs are endocytosed and processed by the different cell types.
On the technique in general: A flow cytometer gives signals particle by particle.

The conditions of data set [6]: mouse, in vivo.
Description: Fluorescently labeled constructs are administered to mice by different routes of injection including intravenously by way of retroorbital or tail vein injection, as well as intrathecally. At set time points the mice are imaged using IVIS to track the biodistribution patterns.
In data set [7] the test system is Human endothelial cells cultured alone or with microglial and astrocyte cells on a transwell membrane.
Description: The ability of the construct to pass the BBB is also assessed. […] To investigate this an in vitro transwell model of transcytosis is used. Human endothelial cells are cultured alone or in concert with microglial and astrocyte cells on a transwell membrane. Once confluent, the constructs are added to the apical side of the insert and their transcytosis through the cell monolayer to the basolateral side of the insert is quantified by fluorescence.

As to `Nc1c(Br)cc(Br)cc1CN[C@H]1CC[C@H](O)CC1` [Ambroxol], in data set [1], the “GCase activity of ProSNA constructs with small molecule activator” value is reported as “elevation in enzyme activity; also recorded: partial recovery of GCase activity”.

On to `OCCOCCN1CCN(C2=Nc3ccccc3Sc3ccccc32)CC1` [quetiapine], for which the “GCase activity of ProSNA constructs with small molecule activator” value in data set [1] was “elevation in enzyme activity; also recorded: partial recovery of GCase activity”. Also, the “activity of the native GCase protein” value in data set [2] (5 μM quetiapine) and in data set [2] (10 μM quetiapine) was “sufficient to increase the activity of the native protein” in each case. The “presence of α-synuclein protein aggregates” value in data set [3] was “reduce the presence of α-synuclein protein aggregates”.

B1: Bivalent ProSNA: GCase protein functionalized with the bivalent ligand (folate modified transferrin aptamer), roughly 14-18 ligands per protein (conjugate, UniProt P04062 40-536, looked up)
Lysosomal acid …: ARPCIPKSFGYSSVVCVCNATYCDSFDPPTFPALGTFSRYESTRSGRRMELSMGPIQANHTGTGLLLTLQPEQKFQKVKGFGGAMTDAAALNILALSPPAQNLLLKSYFSEEGIGYNIIRVPMASCDFSIRTYTYADTPDDFQLHNFSLPEEDTKLKIPLIHRALQLAQRPVSLLASPWTSPTWLKTNGAVNGKGSLKGQPGDIYHQTWARYFVKFLDAYAEHKLQFWAVTAENEPSAGLLSGYPFQCLGFTPEHQRDFIARDLGPTLANSTHHNVRLLMLDDQRLLLPHWAKVVLTDPEAAKYVHGIAVHWYLDFLAPAKATLGETHRLFPNTMLFASEACVGSKFWEQSVRLGSWDRGMQYSHSIITNLLYHVVGWTDWNLALNPEGGPNWVRNFVDSPIIVDITKDTFYKQPMFYHLGHFSKFIPEGSQRVGLVASQKNDLDAVALMHPDGSAVVVVLNRSSKDVPLTIKDPAVGFLETISPGYSIHTYLWRRQ
modifications: folate-modified transferrin aptamer shell, 14-18 ligands
notes: GCase protein functionalized with the bivalent ligand (folate modified transferrin aptamer), roughly 14-18 ligands per protein
B1: in data set [4], the “protein activity after functionalization, compared with unmodified GCase” value is listed as “functionalization does impact protein activity; also recorded: reduction of overall activity”; the “protein activity, PEGylated protein versus ProSNA constructs” value was “significant increase in activity”; the “protein activity, univalent versus bivalent constructs” value was “no significant difference between the univalent and bivalent variations; also recorded: no significant difference between the uni- and bivalent constructs”. In data set [5] (different time points), the “rates of uptake across time points” value is “highest at shorter time points”. In addition, in data set [5] (neurons (dopaminergic), astrocytes, microglia, flow cytometry), the “uptake into cells compared to control groups” value is recorded as “enhance its uptake into all cell types”. The “biodistribution (localization to the brain space)” value in data set [6] was “localize to the brain space in higher concentrations when compared to control groups”. For the same molecule, in data set [7], the “rate of transcytosis across the blood-brain barrier” value is reported as “significant increase in the rate of transcytosis across the blood-brain barrier was observed” and the “rate of transcytosis compared to control groups” value was “higher rate of transcytosis when compared to control groups”.

B2: Univalent ProSNA: GCase protein functionalized with only the transferrin aptamer (conjugate, UniProt P04062 40-536, looked up)
Lysosomal acid …: ARPCIPKSFGYSSVVCVCNATYCDSFDPPTFPALGTFSRYESTRSGRRMELSMGPIQANHTGTGLLLTLQPEQKFQKVKGFGGAMTDAAALNILALSPPAQNLLLKSYFSEEGIGYNIIRVPMASCDFSIRTYTYADTPDDFQLHNFSLPEEDTKLKIPLIHRALQLAQRPVSLLASPWTSPTWLKTNGAVNGKGSLKGQPGDIYHQTWARYFVKFLDAYAEHKLQFWAVTAENEPSAGLLSGYPFQCLGFTPEHQRDFIARDLGPTLANSTHHNVRLLMLDDQRLLLPHWAKVVLTDPEAAKYVHGIAVHWYLDFLAPAKATLGETHRLFPNTMLFASEACVGSKFWEQSVRLGSWDRGMQYSHSIITNLLYHVVGWTDWNLALNPEGGPNWVRNFVDSPIIVDITKDTFYKQPMFYHLGHFSKFIPEGSQRVGLVASQKNDLDAVALMHPDGSAVVVVLNRSSKDVPLTIKDPAVGFLETISPGYSIHTYLWRRQ
modifications: transferrin aptamer DNA shell
B2: in data set [4], the “protein activity after functionalization, compared with unmodified GCase” value was “functionalization does impact protein activity”; the “protein activity, PEGylated protein versus ProSNA constructs” value is given as “significant increase in activity”; the “protein activity, univalent versus bivalent constructs” value is “no significant difference between the univalent and bivalent variations; also recorded: no significant difference between the uni- and bivalent constructs”.

B3: PEGylated protein: GCase after PEGylation, comparator in the activity assay (conjugate, UniProt P04062 40-536, looked up)
Lysosomal acid …: ARPCIPKSFGYSSVVCVCNATYCDSFDPPTFPALGTFSRYESTRSGRRMELSMGPIQANHTGTGLLLTLQPEQKFQKVKGFGGAMTDAAALNILALSPPAQNLLLKSYFSEEGIGYNIIRVPMASCDFSIRTYTYADTPDDFQLHNFSLPEEDTKLKIPLIHRALQLAQRPVSLLASPWTSPTWLKTNGAVNGKGSLKGQPGDIYHQTWARYFVKFLDAYAEHKLQFWAVTAENEPSAGLLSGYPFQCLGFTPEHQRDFIARDLGPTLANSTHHNVRLLMLDDQRLLLPHWAKVVLTDPEAAKYVHGIAVHWYLDFLAPAKATLGETHRLFPNTMLFASEACVGSKFWEQSVRLGSWDRGMQYSHSIITNLLYHVVGWTDWNLALNPEGGPNWVRNFVDSPIIVDITKDTFYKQPMFYHLGHFSKFIPEGSQRVGLVASQKNDLDAVALMHPDGSAVVVVLNRSSKDVPLTIKDPAVGFLETISPGYSIHTYLWRRQ
modifications: PEGylated
For B3, the “protein activity, PEGylated protein versus ProSNA constructs” value in data set [4] is “significant increase in activity when comparing the PEGylated protein to both ProSNA constructs”.
